Reference: patent publication US20110105397A1, “METHOD FOR TREATING HEART FAILURE WITH STRESSCOPIN-LIKE PEPTIDES” (priority 2009, published 2011)
Where no end group is shown, it is not given here. The star is where a group is joined. Succinimide(1-Et,3-yl) = CCN1C(=O)CC(*)C1=O

Target: T1, human corticotrophin releasing hormone receptor type 2 (CRHR2) (human, UniProt Q13324 1-411)
T1 sequence (looked up): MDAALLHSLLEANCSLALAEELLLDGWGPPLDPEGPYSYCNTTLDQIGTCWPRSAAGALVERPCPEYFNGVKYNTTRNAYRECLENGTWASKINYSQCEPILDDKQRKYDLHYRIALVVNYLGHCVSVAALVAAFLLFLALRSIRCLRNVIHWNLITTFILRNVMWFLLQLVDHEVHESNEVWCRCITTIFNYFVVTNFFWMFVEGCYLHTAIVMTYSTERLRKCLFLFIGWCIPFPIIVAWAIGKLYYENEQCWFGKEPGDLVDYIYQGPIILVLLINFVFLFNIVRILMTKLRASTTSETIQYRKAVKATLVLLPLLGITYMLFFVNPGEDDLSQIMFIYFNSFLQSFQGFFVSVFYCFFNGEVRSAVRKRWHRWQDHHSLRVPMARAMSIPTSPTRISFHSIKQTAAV
Experiment: cell-based or functional assay

Binder | Log DR [log10] | pA50
TKFTLSLDVPTNIMNLLFNIAKAKNLRCQAAANAHLMAQI (NES-PEG MW2000 on Cys 28; C-terminal amide (-NH2)) [Pegylated Cys-variant stresscopin-like peptide, NES-PEG MW2000, SEQ ID NO: 95] | 0.43 | 9.31 -log10(M)
TKFTLSLDVPTNIMNLLFNIAKAKNLRAQAAANAHLMAQC(Succinimide(1-Et,3-yl))-NH2 (N-terminus assumed; SMILES CC[C@H](C)[C@H](NC(=O)[C@H](CC(N)=O)NC(=O)[C@H](Cc1ccccc1)NC(=O)[C@H](CC(C)C)NC(=O)[C@H](CC(C)C)NC(=O)[C@H](CC(N)=O)NC(=O)[C@H](CCSC)NC(=O)[C@@H](NC(=O)[C@H](CC(N)=O)NC(=O)[C@@H](NC(=O)[C@@H]1CCCN1C(=O)[C@@H](NC(=O)[C@H](CC(=O)O)NC(=O)[C@H](CC(C)C)NC(=O)[C@H](CO)NC(=O)[C@H](CC(C)C)NC(=O)[C@@H](NC(=O)[C@H](Cc1ccccc1)NC(=O)[C@H](CCCCN)NC(=O)[C@@H](N)[C@@H](C)O)[C@@H](C)O)C(C)C)[C@@H](C)O)[C@@H](C)CC)C(=O)N[C@@H](C)C(=O)N[C@@H](CCCCN)C(=O)N[C@@H](C)C(=O)N[C@@H](CCCCN)C(=O)N[C@@H](CC(N)=O)C(=O)N[C@@H](CC(C)C)C(=O)N[C@@H](CCCNC(=N)N)C(=O)N[C@@H](C)C(=O)N[C@@H](CCC(N)=O)C(=O)N[C@@H](C)C(=O)N[C@@H](C)C(=O)N[C@@H](C)C(=O)N[C@@H](CC(N)=O)C(=O)N[C@@H](C)C(=O)N[C@@H](Cc1c[nH]cn1)C(=O)N[C@@H](CC(C)C)C(=O)N[C@@H](CCSC)C(=O)N[C@@H](C)C(=O)N[C@@H](CCC(N)=O)C(=O)N[C@@H](CSC1CC(=O)N(CC)C1=O)C(N)=O) [Cys-variant of stresscopin peptide with N-Ethylsuccinimide (NES) reactive group SEQ ID NO: 42] | ~1.72 | ~7.75 -log10(M)
TKFTLSLDVPTNIMNLLFNIAKAKNLRCQAAANAHLMAQI (NES-PEG MW5000 on Cys 28; C-terminal amide (-NH2)) [Pegylated Cys-variant stresscopin-like peptide, NES-PEG MW5000, SEQ ID NO: 96] | 1 | 8.74 -log10(M)
TKFTLSLDVPTNIMNLLFNIAKAKNLRAQAAANAC(Succinimide(1-Et,3-yl))LMAQI-NH2 (N-terminus assumed; SMILES CC[C@H](C)[C@H](NC(=O)[C@H](CCC(N)=O)NC(=O)[C@H](C)NC(=O)[C@H](CCSC)NC(=O)[C@H](CC(C)C)NC(=O)[C@H](CSC1CC(=O)N(CC)C1=O)NC(=O)[C@H](C)NC(=O)[C@H](CC(N)=O)NC(=O)[C@H](C)NC(=O)[C@H](C)NC(=O)[C@H](C)NC(=O)[C@H](CCC(N)=O)NC(=O)[C@H](C)NC(=O)[C@H](CCCNC(=N)N)NC(=O)[C@H](CC(C)C)NC(=O)[C@H](CC(N)=O)NC(=O)[C@H](CCCCN)NC(=O)[C@H](C)NC(=O)[C@H](CCCCN)NC(=O)[C@H](C)NC(=O)[C@@H](NC(=O)[C@H](CC(N)=O)NC(=O)[C@H](Cc1ccccc1)NC(=O)[C@H](CC(C)C)NC(=O)[C@H](CC(C)C)NC(=O)[C@H](CC(N)=O)NC(=O)[C@H](CCSC)NC(=O)[C@@H](NC(=O)[C@H](CC(N)=O)NC(=O)[C@@H](NC(=O)[C@@H]1CCCN1C(=O)[C@@H](NC(=O)[C@H](CC(=O)O)NC(=O)[C@H](CC(C)C)NC(=O)[C@H](CO)NC(=O)[C@H](CC(C)C)NC(=O)[C@@H](NC(=O)[C@H](Cc1ccccc1)NC(=O)[C@H](CCCCN)NC(=O)[C@@H](N)[C@@H](C)O)[C@@H](C)O)C(C)C)[C@@H](C)O)[C@@H](C)CC)[C@@H](C)CC)C(N)=O) [Cys-variant of stresscopin peptide with N-Ethylsuccinimide (NES) reactive group SEQ ID NO: 43] | -0.32 | 9.79 -log10(M)
TKFTLSLDVPTNIMNLLFNIAKAKNLRCQAAANAHLMAQI (NES-PEG MW12000 on Cys 28; C-terminal amide (-NH2)) [Pegylated Cys-variant stresscopin-like peptide, NES-PEG MW12000, SEQ ID NO: 97] | ~0.74 | ~9 -log10(M)
